Reference: article PMC6363177, “R pyocin tail fiber structure reveals a receptor-binding domain with a lectin fold” (PLoS ONE, 2019)

Columns and labels:
[1] = target: the molecule itself; experiment: SEC; analytical Sepharose-200 10/300 column, elution volumes compared with SEC standards (Biorad); samples diluted to 1 mg/mL in 50mM Tris pH 8.0, 150mM NaCl, 5% glycerol
[2] = target: the molecule itself; experiment: crystal structure; vapor diffusion crystals at 16°C; trimer formed by crystallographic symmetry, also checked with PISA

B1: R2-subtype N-terminally truncated tail fiber fragment (R2-NTF) (domain or fragment)
chain: YVRVSYAANPSIREWLPWQRCDIGGSFTKEADGELPGGVNLDSMVTSGWWSQSFTAQAASGANYPIVRAGLLHVYAASSNFIYQTYQAYDGESFYFRCRHSNTWFPWRRMWHGGDFNPSDYLLKSGFYWNALPGKPATFPPSAHNHDVGQLTSGILPLARGGVGSNTAAGARSTIGAGVPATASLGASGWWRDNDTGLIRQWGQVTCPADADASITFPIPFPTLCLGGYANQTSAFHPGTDASTGFRGATTTTAVIRNGYFAQAVLSWEAFGR
notes: R2-subtype pyocin tail fiber PA0620 of Pseudomonas aeruginosa PAO1, residues Y419-R691; numbering relative to native PA0620; Cloned into pMCSG11 (LIC); 32.2 kDa printed; Removal of the tag before crystallisation is not mentioned; also called R2-subtype pyocin tail fiber distal region; PA0620 Y419-R691; source: E. coli BL21 (DE3), co-expressed with chaperone PA0621; in lysate for the Ni-IMAC …
For B1, the “stoichiometry N” value [1] was 3.

B2: Selenomethionine-labelled R2-NTF (domain or fragment)
chain: B1 chain
modifications: selenomethionine in place of methionine
notes: R2-subtype pyocin tail fiber PA0620 of Pseudomonas aeruginosa PAO1, residues Y419-R691 (plasmid pMCSG11/R2-NTF, as m1); numbering relative to native PA0620; Same construct as m1, made in another host and labelled with selenomethionine for Se-SAD phasing; also called Sel-met R2-NTF; selenomethionine replaced R2-NTF; source: E. coli B834 (DE3) methionine auxotroph, co-expressed with PA0621 in M9 …
B2 was tested, and the “stoichiometry N” value [2] was 3.
